Measured values as given in patent US20100202967A1 (BRACCO IMAGING, published 2010).
Bridge positions count the residues as written; N and C are the ends. Square brackets hold non-standard residues; d marks the D form. Ends that are not written are not given here. Phe(3,4-F2) = N[C@@H](Cc1ccc(F)c(F)c1)C(=O)O; Thf2ca = tetrahydrofuran-2-carboxylic acid; Phe(4-F) = N[C@@H](Cc1ccc(F)cc1)C(=O)O; Hyp = O=C(O)[C@@H]1C[C@@H](O)CN1; Cha = N[C@@H](CC1CCCCC1)C(=O)O; CF5 = 5-carboxyfluorescein

T1: fibrin
T1 chain 1: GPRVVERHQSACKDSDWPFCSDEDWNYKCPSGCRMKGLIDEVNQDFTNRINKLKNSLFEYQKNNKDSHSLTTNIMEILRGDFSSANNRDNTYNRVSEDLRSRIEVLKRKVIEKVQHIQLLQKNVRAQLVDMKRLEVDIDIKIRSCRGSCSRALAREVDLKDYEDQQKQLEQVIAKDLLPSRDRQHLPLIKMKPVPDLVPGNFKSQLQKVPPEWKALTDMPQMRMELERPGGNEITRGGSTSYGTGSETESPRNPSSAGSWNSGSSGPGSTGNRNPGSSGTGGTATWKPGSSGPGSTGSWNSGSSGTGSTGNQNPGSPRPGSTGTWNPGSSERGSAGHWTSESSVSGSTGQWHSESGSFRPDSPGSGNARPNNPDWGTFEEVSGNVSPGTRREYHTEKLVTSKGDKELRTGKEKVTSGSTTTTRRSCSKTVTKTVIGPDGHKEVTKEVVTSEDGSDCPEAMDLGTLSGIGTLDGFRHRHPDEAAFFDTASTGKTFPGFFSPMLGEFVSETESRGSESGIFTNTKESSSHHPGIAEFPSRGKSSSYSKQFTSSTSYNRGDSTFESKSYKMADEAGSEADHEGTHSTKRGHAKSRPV
T1 chain 2: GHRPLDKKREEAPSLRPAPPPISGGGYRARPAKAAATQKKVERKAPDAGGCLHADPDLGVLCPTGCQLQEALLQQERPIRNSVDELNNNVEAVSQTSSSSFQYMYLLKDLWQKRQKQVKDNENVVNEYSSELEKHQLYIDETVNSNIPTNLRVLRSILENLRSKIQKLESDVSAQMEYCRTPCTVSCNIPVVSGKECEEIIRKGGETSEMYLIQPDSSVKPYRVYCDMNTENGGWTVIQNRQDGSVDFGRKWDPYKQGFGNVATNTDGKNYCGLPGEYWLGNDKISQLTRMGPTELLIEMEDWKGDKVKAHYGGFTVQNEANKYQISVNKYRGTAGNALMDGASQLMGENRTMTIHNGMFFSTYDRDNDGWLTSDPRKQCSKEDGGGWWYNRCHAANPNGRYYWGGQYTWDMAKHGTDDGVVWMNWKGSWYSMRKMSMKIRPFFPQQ
T1 chain 3: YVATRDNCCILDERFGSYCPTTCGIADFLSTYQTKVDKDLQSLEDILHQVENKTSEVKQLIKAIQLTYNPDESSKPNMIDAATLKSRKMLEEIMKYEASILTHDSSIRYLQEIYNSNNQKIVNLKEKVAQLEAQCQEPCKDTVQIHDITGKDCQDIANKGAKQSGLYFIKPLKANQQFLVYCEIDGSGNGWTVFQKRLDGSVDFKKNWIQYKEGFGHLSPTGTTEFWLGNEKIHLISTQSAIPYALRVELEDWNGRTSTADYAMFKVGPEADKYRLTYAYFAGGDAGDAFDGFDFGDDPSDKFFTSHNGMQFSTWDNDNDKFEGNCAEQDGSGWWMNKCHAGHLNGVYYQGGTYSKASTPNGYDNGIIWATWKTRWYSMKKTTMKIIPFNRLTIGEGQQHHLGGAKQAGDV


Molecular target: T1, fibrin
Experiment: competition fluorescence polarization assay (n = 2)

Rel IC50	Binder
0.75 ratio to Ac-Seq000-GGGK-NH2	Ac-RRGGWQPC[Hyp]WESWTFCWDPGGGK-NH2 (disulfide 8-16; SMILES CC(=O)N[C@@H](CCCNC(=N)N)C(=O)N[C@@H](CCCNC(=N)N)C(=O)NCC(=O)NCC(=O)N[C@@H](Cc1c[nH]c2ccccc12)C(=O)N[C@@H](CCC(N)=O)C(=O)N1CCC[C@H]1C(=O)N[C@H]1CSSC[C@@H](C(=O)N[C@@H](Cc2c[nH]c3ccccc23)C(=O)N[C@@H](CC(=O)O)C(=O)N2CCC[C@H]2C(=O)NCC(=O)NCC(=O)NCC(=O)N[C@@H](CCCCN)C(N)=O)NC(=O)[C@H](Cc2ccccc2)NC(=O)[C@H]([C@@H](C)O)NC(=O)[C@H](Cc2c[nH]c3ccccc23)NC(=O)[C@H](CO)NC(=O)[C@H](CCC(=O)O)NC(=O)[C@H](Cc2c[nH]c3ccccc23)NC(=O)[C@@H]2C[C@@H](O)CN2C1=O) [Ac-RRGGWQPC*-Hypt4-WESWTFC*WDPGGGK-NH2]

Molecular target: fibrin
Experiment: competition fluorescence polarization assay; reference of Table 6

Rel IC50 (ratio (reference peptide itself))	Binder
1	WQPCPWESWTFCWDPGGGK (N-terminal acetyl; disulfide Cys4-Cys12 (C*); C-terminal amide) [Ac-WQPC*PWESWTFC*WDPGGGK-NH2]

Molecular target: fibrin
Experiment: competition fluorescence polarization assay (n = 2)

Rel IC50 (ratio to Ac-Seq000-GGGK-NH2)	Binder
1.04	Ac-GWQPCPWESWTFCWDPGGGK-NH2 (disulfide 5-13) [Ac-GWQPC*PWESWTFC*WDPGGGK-NH2]
0.601	Ac-WQPCPWESWT[Phe(4-F)]CWDPGGGK-NH2 (disulfide 4-12) [Ac-WQPC*PWESWT-Ffe4-C*WDPGGGK-NH2]
0.428	Ac-WQPCPWESWT[Phe(3,4-F2)]CWDPGGGK-NH2 (disulfide 4-12) [Ac-WQPC*PWESWT-F34fe-C*WDPGGGK-NH2]
0.494	Ac-WQPCPWESWT[Cha]CWDPGGGK-NH2 (disulfide 4-12) [Ac-WQPC*PWESWT-Cha-C*WDPGGGK-NH2]
0.616	Thf2ca-WQPCPWESWTFCWDPGGGK-NH2 (disulfide 4-12) [Thf2ca-WQPC*PWESWTFC*WDPGGGK-NH2]
0.622	H-GWQPCPWESWTFCWDPGGGK-NH2 (disulfide 5-13) [GWQPC*PWESWTFC*WDPGGGK-NH2]

Molecular target: fibrin
Experiment: fluorescence polarization, direct binding (n = 2)

Kd [nM]	Binder
240	Ac-GWQPCPAESWTFCWDPGGGK(CF5)-NH2 (disulfide 5-13) [Ac-GWQPC*PAESWTFC*WDPGGGK(CF5)-NH2]
210	RWQPCPAESWTFCWDPGGGK(CF5)-NH2 (disulfide 5-13; not fully specified (N-terminus); printed as RWQPC*PAESWTFC*WDPGGGK(CF5)-NH2) [Ac-RWQPC*PAESWTFC*WDPGGGK(CF5)-NH2]
110	H-RWQPCPWESWTFCWDPGGGK(CF5)-NH2 (disulfide 5-13) [RWQPC*PWESWTFC*WDPGGGK(CF5)-NH2]
1210	Thf2ca-WQPCPWESWTFCWDPGGGK(CF5)-NH2 (disulfide 4-12) [Thf2ca-WQPC*PWESWTFC*WDPGGGK(CF5)-NH2]
100	Ac-RGWQPCPAESWT[Cha]CWDPGGGK(CF5)-NH2 (disulfide 6-14) [Ac-RGWQPC*PAESWT-Cha-C*WDPGGGK(CF5)-NH2]
240	H-GWQPCPAESWTFCWDPGGGK(CF5)-NH2 (disulfide 5-13) [GWQPC*PAESWTFC*WDPGGGK(CF5)-NH2]
60	H-RWQPCPAESWTFCWDPGGGK(CF5)-NH2 (disulfide 5-13) [RWQPC*PAESWTFC*WDPGGGK(CF5)-NH2]
200	Ac-WQPCPWESWT[Cha]CWDPGGGK(CF5)-NH2 (disulfide 4-12) [Ac-WQPC*PWESWT-Cha-C*WDPGGGK(CF5)-NH2]
390	Ac-WQPCPWESWTFCWDPGGGK(CF5)-NH2 (disulfide 4-12) [Ac-WQPC*PWESWTFC*WDPGGGK(CF5)-NH2]
110	Ac-RWQPCPWESWTFCWDPGGGK(CF5)-NH2 (disulfide 5-13) [Ac-RWQPC*PWESWTFC*WDPGGGK(CF5)-NH2]
1020	Ac-WQPCPWESWT[Phe(4-F)]CWDPGGGK(CF5)-NH2 (disulfide 4-12) [Ac-WQPC*PWESWT-Ffe4-C*WDPGGGK(CF5)-NH2]
700	Ac-WQPCPWESWT[Phe(3,4-F2)]CWDPGGGK(CF5)-NH2 (disulfide 4-12) [Ac-WQPC*PWESWT-F34fe-C*WDPGGGK(CF5)-NH2]
50	H-RGWQPCPAESWT[Cha]CWDPGGGK(CF5)-NH2 (disulfide 6-14) [RGWQPC*PAESWT-Cha-C*WDPGGGK(CF5)-NH2]
